IC50 and relative binding ratio data for three molecules are collected here from patent US20040018971A1 (published 2004).

For assay [1], the target named is T1, HLA-A*0201 (human).
T1 construct: also called HLA-A2.1; A2.1
The assay is described as follows: competitive inhibition of 125I-labeled probe peptide binding to purified HLA-A*0201.

Assay [2] concerns the target T2, HLA-A*0201 (human).
T2 construct: also called HLA-A2.1
The assay is described as follows: inhibition of 125I-labelled standard peptide binding to purified HLA, gel filtration; ratio = IC50 of standard / IC50 of test peptide.

B1: Her2/neu.144 (peptide)
peptide: SLTEILKGGV
In the assay with HLA-A*0201 [1], B1 came in with an IC50 of at most 500 nM.

B2: HER2/neu peptide, position 442, 9 amino acids (peptide)
peptide: SLTLQGLGI
For the molecule B2, the relative binding ratio with HLA-A*0201 [2] is 0.0003 ratio to standard peptide.

B3: HER2/neu peptide, position 144, 10 amino acids (peptide)
peptide: SLTEILKGGV
notes: also called Her2/neu.144
For the molecule B3, in the assay with HLA-A*0201 [2], the relative binding ratio was 0.015 ratio to standard peptide.
